Experimental data: patent US5786195

Tested on: T1, BssHII restriction endonuclease (bssHIIR) (Bacillus stearothermophilus H3)
T1 sequence: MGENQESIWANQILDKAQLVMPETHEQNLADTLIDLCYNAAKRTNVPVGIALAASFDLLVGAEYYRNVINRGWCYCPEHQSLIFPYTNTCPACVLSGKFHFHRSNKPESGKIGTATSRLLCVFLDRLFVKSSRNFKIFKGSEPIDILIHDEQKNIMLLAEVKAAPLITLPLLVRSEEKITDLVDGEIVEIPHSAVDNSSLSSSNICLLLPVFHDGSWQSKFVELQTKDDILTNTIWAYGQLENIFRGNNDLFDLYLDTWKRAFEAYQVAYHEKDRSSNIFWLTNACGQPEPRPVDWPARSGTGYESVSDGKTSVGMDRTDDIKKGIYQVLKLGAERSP
Test: cleavage_in_vitro
Conditions: cell extract; activity seen after 10- and 100-fold dilution

Q: lambda DNA (BssHII sites) was tested. Which activity (units per g wet cells) did it give?
A: The activity (units per g wet cells) was 100000.
